The target of assay [1] is Leishmania braziliensis Hsp90 (LbHsp90) (Leishmania braziliensis).
Assay [2] has the same target. The assay is described as follows: ITC; LbAha1 (130–150 µM) injected into LbHsp90 (around 5.5 µM, as dimers); 40 mM HEPES pH 7.5, 5 mM KCl; 20°C; One Set of Sites fit; apparent enthalpy. In general terms: ITC needs no label: the signal is the heat of the interaction.

With “Leishmania braziliensis Activator of Hsp90 ATPase 1 (LbAha1) (natural protein)”, in assay [1], the stimulation of LbHsp90 ATPase activity (1 µM dimer, 0.5 mM ATP, 37°C) by increasing LbAha1 (0–20 µM in the methods, 0–16 µM in the legend); relative ATPase activity was 10 fold. In addition, in assay [2], the Kd is 1 µM, the dH is -18 kcal/mol and the stoichiometry N (LbAha1 per LbHsp90 dimer) turned out to be 2.

For the origin of these results see article PMC3691308.
